Columns and labels:
[1] = biological target: nucleosome (human histones H2A, H2B, H3.1 and H4 with Widom 601 DNA), P04908;P06899;P68431;P62805; test: electrophoretic mobility shift assay; settings: read off a plot
[2] = biological target: the molecule itself; test: cryo-EM micrographs; RAD51 alone, without nucleosome and DNA (WT 92.5 µM, K64A/K70A 73.3 µM, R235D 55.2 µM), 1 mM AMP-PNP; 37 °C 30 min, 34 mM HEPES-NaOH pH 7.5, 135 mM NaCl, 1 mM MgCl2; filament formation
[3] = ADP, RAD51 3.6 µM, parent: est. 100
[4] = AMP-PNP, RAD51 1.2 µM, parent: est. 33
[5] = AMP-PNP, RAD51 2.4 µM, parent: est. 92
[6] = AMP-PNP, RAD51 3.6 µM, parent: est. 99

response [1, 3]	response [1, 4]	response [1, 5]	response [1, 6]	Molecule	binding result [2]
-1%	26%	86%	98%	human RAD51 (from UniProt Q06609) K64A	–
-5%	3%	20%	59%	human RAD51 (from UniProt Q06609) K64A; K70A	–
-9%	19%	78%	93%	human RAD51 (from UniProt Q06609) K70A	–
–	–	–	–	RAD51(K64A/K70A) (natural protein, human, RAD51, human; source: E. coli, purified (Ni-NTA agarose, thrombin, spermidine precipitation, MonoQ)) MAMQMQLEANADTSVEEESFGPQPISRLEQCGINANDVKKLEEAGFHTVEAVAYAPKKELINIAGISEAAADKILAEAAKLVPMGFTTATEFHQRRSEIIQITTGSKELDKLLQGGIETGSITEMFGEFRTGKTQICHTLAVTCQLPIDRGGGEGKAMYIDTEGTFRPERLLAVAERYGLSGSDVLDNVAYARAFNTDHQTQLLYQASAMMVESRYALLIVDSATALYRTDYSGRGELSARQMHLARFLRMLLRLADEFGVAVVITNQVVAQVDGAAMFAADPKKPIGGNIIAHASTTRLYLRKGRGETRICKIYDSPCLPEAEAMFAINADGVGDAKD	binds
–	–	–	–	RAD51(R235D) (natural protein, human, RAD51, human; source: E. coli, purified (Ni-NTA agarose, thrombin, spermidine precipitation, MonoQ)) MAMQMQLEANADTSVEEESFGPQPISRLEQCGINANDVKKLEEAGFHTVEAVAYAPKKELINIKGISEAKADKILAEAAKLVPMGFTTATEFHQRRSEIIQITTGSKELDKLLQGGIETGSITEMFGEFRTGKTQICHTLAVTCQLPIDRGGGEGKAMYIDTEGTFRPERLLAVAERYGLSGSDVLDNVAYARAFNTDHQTQLLYQASAMMVESRYALLIVDSATALYRTDYSGDGELSARQMHLARFLRMLLRLADEFGVAVVITNQVVAQVDGAAMFAADPKKPIGGNIIAHASTTRLYLRKGRGETRICKIYDSPCLPEAEAMFAINADGVGDAKD	binds
